Reference: patent publication US20050159354A1

Columns and labels:
[1] = molecular target: neuronal receptor for agrin, on cultured mouse cortical neurons (mouse); assay: cell-based or functional assay
[2] = molecular target: neuronal receptor for agrin, on cultured mouse cortical neurons (mouse); assay: NIH Image analysis of immunofluorescence on cortical neurons; competitor C-Ag20z8 at 1:1 molar ratio (unpublished data)

Substance | EC50 of c-fos induction in cortical neurons (in situ enzyme-linked immunoassay) [1] | rescue of glutamate-induced Fos expression in agrin-deficient neurons (5 nM, 2 d) [1] | other results
C-Ag95z0, soluble 95-kD COOH terminus of mouse agrin, y4 z0 (from UniProt A2ASQ1 1144-1950) (ligand) | 0.0119 nM |  | 
rC-Agy4z8, soluble 95-kD COOH-terminal fragment of rat agrin, y4z8 isoform (from UniProt P25304 1153-1951) (ligand) |  |  | reduction of labeling (mean pixel intensity) [2]: 30%
C-Ag15, 15-kD COOH-terminal fragment of mouse agrin (ligand) |  |  | IC50 of inhibition of c-fos induction by 50 pM C-Ag95z8 in cortical neurons [1]: 64.5 pM; inhibition of rescue of the agrin-deficient glutamate response by 5 nM C-Ag95z0 (10 nM C-Ag15) [1]: 54%
C-Ag95z8, soluble 95-kD COOH terminus of mouse agrin, y4 z8 (from UniProt A2ASQ1 1144-1950) (ligand) | 0.0127 nM |  | 

Second part, led by results:

EC50 of c-fos induction in cortical neurons (in situ enzyme-linked immunoassay) [1] | rescue of glutamate-induced Fos expression in agrin-deficient neurons (5 nM, 2 d) [1] | Substance | other results
0.0112 nM | 2.2 fold | C-Ag20z8, 20-kD COOH-terminal fragment of mouse agrin, z8 splice variant (ligand) | 
0.0133 nM | 2.2 fold | C-Ag20z0, 20-kD COOH-terminal fragment of mouse agrin, z0 splice variant (ligand) | 
